Measurements as given in PMC10017041 (Science Advances, 2023).

What was measured:
Experiment in all cases: cryo-EM structure
[1] = biological target: CCT6 subunit of yeast TRiC (S. cerevisiae, UniProt P39079 1-546)
[2] = biological target: CCT7 subunit of yeast TRiC (S. cerevisiae, UniProt P42943 1-550)
[3] = biological target: CCT2 subunit of yeast TRiC (S. cerevisiae, UniProt P39076 1-527)
[4] = biological target: CCT5 subunit of yeast TRiC (S. cerevisiae, UniProt P40413 1-562)
[5] = biological target: CCT1 subunit of yeast TRiC (S. cerevisiae, UniProt P12612 1-559)
[6] = biological target: CCT3 subunit of yeast TRiC (S. cerevisiae, UniProt P39077 1-534)
[7] = biological target: CCT4 subunit of yeast TRiC (S. cerevisiae, UniProt P39078 1-528)

Measured: binding result

Chain of CCT1 subunit of yeast TRiC (P12612 whole entry): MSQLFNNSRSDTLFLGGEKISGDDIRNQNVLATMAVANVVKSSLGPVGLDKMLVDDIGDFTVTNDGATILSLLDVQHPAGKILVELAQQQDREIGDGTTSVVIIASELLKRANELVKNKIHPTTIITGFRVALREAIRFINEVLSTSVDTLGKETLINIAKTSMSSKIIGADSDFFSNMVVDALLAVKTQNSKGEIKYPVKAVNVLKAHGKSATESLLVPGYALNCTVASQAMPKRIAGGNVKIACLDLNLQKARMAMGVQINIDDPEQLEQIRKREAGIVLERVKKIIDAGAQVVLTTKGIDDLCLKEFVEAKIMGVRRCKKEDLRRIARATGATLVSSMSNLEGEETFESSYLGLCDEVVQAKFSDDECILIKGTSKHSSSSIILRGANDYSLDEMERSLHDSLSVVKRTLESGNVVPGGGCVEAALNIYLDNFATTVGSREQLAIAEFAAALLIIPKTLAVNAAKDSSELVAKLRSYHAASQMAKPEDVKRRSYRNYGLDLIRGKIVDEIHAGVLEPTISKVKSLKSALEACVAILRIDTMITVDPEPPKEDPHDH
Chain of CCT7 subunit of yeast TRiC (P42943 whole entry): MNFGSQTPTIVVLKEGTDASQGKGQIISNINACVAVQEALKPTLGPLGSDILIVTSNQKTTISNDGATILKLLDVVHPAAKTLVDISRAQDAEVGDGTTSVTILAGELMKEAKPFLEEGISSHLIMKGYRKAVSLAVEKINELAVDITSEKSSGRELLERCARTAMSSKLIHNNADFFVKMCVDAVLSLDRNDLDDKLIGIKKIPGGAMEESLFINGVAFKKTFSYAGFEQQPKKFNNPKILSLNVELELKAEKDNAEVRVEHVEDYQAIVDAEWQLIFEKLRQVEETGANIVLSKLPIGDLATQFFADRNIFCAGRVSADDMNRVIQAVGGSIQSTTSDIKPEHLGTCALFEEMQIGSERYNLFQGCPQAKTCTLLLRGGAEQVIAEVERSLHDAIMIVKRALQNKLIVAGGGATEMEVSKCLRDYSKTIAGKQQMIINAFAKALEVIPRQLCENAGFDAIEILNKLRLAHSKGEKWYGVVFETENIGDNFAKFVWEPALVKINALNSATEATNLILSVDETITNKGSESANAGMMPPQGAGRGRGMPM
Chain of CCT3 subunit of yeast TRiC (P39077 whole entry): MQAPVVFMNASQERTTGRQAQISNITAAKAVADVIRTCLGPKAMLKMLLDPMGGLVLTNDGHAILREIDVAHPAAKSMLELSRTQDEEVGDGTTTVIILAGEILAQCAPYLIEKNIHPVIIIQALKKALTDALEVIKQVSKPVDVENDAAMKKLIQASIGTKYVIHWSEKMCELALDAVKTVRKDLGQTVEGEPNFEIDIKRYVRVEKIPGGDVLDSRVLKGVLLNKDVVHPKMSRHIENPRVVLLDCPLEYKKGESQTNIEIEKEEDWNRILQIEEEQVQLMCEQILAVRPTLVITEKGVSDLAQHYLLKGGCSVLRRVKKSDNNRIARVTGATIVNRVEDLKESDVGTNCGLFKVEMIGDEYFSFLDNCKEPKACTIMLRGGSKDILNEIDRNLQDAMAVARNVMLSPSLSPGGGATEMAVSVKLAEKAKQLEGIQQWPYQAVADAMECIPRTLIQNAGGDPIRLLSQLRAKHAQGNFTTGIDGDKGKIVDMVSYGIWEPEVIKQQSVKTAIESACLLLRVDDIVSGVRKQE
Chain of CCT6 subunit of yeast TRiC (P39079 whole entry): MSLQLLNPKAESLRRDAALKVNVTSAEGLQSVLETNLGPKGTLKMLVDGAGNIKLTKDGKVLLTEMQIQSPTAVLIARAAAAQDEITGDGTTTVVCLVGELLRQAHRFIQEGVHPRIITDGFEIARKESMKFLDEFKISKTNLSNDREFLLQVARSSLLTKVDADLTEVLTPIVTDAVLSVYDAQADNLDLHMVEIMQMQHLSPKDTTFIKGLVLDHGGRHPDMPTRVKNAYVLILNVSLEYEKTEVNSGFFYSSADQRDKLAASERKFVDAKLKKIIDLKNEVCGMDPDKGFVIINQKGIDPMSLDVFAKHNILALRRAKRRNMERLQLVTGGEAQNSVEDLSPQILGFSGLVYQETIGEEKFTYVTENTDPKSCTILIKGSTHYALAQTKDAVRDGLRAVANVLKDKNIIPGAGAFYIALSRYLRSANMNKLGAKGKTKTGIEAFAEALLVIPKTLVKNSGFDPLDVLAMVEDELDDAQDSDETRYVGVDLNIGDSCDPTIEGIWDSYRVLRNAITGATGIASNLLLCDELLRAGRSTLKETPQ
Chain of CCT2 subunit of yeast TRiC (P39076 whole entry): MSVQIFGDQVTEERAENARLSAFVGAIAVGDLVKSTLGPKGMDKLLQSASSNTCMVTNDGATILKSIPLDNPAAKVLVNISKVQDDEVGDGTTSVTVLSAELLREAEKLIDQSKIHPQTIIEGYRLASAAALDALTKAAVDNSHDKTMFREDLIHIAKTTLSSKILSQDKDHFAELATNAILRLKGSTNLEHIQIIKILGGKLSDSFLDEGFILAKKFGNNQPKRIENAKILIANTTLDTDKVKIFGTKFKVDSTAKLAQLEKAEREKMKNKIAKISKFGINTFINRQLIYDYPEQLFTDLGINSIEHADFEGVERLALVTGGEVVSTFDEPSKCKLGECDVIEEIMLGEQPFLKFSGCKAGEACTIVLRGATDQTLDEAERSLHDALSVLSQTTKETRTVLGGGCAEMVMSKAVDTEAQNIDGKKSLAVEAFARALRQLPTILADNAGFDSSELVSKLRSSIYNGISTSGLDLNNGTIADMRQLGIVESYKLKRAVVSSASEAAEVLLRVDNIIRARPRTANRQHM
Chain of CCT5 subunit of yeast TRiC (P40413 whole entry): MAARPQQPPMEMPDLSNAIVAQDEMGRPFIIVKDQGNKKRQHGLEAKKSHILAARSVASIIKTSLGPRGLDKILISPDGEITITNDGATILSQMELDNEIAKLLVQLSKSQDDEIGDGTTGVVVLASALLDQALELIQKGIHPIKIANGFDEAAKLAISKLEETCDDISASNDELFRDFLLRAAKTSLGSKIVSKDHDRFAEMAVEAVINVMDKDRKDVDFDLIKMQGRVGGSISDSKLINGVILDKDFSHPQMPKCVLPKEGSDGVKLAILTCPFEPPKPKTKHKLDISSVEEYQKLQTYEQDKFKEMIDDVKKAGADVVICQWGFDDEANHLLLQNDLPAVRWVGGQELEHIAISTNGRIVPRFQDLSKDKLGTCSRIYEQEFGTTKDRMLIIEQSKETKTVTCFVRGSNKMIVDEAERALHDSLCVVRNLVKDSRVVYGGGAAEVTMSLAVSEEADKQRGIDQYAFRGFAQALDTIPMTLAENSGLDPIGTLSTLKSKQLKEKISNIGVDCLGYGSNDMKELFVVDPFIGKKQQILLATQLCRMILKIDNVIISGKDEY
Chain of CCT4 subunit of yeast TRiC (P39078 whole entry): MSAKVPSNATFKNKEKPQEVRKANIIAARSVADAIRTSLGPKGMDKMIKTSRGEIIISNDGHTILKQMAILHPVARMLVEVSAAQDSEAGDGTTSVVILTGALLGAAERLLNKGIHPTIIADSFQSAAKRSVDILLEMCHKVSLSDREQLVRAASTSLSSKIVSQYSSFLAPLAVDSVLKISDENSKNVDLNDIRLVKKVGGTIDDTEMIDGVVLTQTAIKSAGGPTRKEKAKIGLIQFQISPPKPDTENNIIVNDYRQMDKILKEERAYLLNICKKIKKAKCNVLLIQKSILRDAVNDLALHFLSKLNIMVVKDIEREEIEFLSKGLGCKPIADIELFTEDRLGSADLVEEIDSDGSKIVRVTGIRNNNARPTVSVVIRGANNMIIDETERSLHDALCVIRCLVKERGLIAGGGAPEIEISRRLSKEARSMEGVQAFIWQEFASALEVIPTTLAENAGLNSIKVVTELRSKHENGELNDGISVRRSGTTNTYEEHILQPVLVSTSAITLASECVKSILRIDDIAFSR

B1: yeast plp2 (homolog of PhLP2 in Saccharomyces cerevisiae) (natural protein, S. cerevisiae)
chain: MQNEPMFQVQVDESEDSEWNDILRAKGVIPERAPSPTAKLEEALEEAIAKQHENRLEDKDLSDLEELEDDEDEDFLEAYKIKRLNEIRKLQERSKFGEVFHINKPEYNKEVTLASQGKKYEGAQTNDNGEEDDGGVYVFVHLSLQSKLQSRILSHLFQSAACKFREIKFVEIPANRAIENYPESNCPTLIVYYRGEVIKNMITLLELGGNNSKMEDFEDFMVKVGAVAEGDNRLIMNRDDEESREERKLHYGEKKSIRSGIRGKFNVGIGGNDDGNINDDDDGFFD
binds: all assays above
